According to publication PMC3012076:

Columns and labels:
[1] = target: Lig A9 (9th tandem Big repeat of LigA) (L. interrogans serovar Pomona); test: SEC; Superose 12 10/300 GL, 25 mM HEPES pH 7.0, 50 mM KCl, with and without 3 mM CaCl2; column calibrated with molecular mass markers; self-association, monomer to dimer
[2] = target: Lig A10 (10th tandem Big repeat of LigA) (L. interrogans serovar Pomona); test: as above
[3] = target: LigBCen2 (L. interrogans serovar Pomona); test: SEC; Superose 12 10/300 GL, 50 mM Tris pH 7.0, 50 mM KCl, with and without 3 mM CaCl2; column calibrated with molecular mass markers; self-association, monomer to dimer

**Q.** With “Lig A9 (9th tandem Big repeat of LigA) (domain or fragment)” as the substance, how does the stoichiometry N [1] read?
**A.** 2

**Q.** “Lig A10 (10th tandem Big repeat of LigA) (domain or fragment)” was tested. Which stoichiometry N [2] did it give?
**A.** 2

**Q.** With LigBCen2 (domain or fragment) as the substance, how does the stoichiometry N [3] read?
**A.** 2
